This note sets out measurements from publication PMC10657180.

Test [1] deals with neddylated CUL1-RBX1 with the FBXW7-SKP1 substrate receptor (human) (UniProt Q13616).
For test [2], the target named is neddylated CUL2-RBX1 in complex with the VHL-ELONGIN B/C substrate receptor (human) (UniProt Q13617).
In test [3] the target is neddylated CUL2-RBX1 in complex with the KLHDC2-ELONGIN B/C substrate receptor (human) (UniProt Q13617).

ARIH1, sequence (Q9Y4X5 whole entry): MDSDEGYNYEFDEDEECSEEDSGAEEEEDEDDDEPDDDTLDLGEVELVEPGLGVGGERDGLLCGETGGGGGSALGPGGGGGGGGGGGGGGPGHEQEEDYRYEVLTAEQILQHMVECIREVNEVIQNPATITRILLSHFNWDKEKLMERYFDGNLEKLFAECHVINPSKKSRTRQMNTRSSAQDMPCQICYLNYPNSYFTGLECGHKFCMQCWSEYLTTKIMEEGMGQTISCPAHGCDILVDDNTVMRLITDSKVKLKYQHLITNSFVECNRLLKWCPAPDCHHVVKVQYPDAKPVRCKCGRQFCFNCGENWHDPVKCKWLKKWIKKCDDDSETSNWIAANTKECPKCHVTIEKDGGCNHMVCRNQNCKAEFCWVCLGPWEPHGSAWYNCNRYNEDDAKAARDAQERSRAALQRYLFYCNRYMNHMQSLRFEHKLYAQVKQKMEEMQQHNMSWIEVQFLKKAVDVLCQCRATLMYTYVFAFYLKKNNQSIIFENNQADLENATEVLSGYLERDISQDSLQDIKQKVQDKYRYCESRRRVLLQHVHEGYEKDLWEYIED

With “N358A ARIH1 (from UniProt Q9Y4X5 1-557) (enzyme)”, in test [1], the Km of ARIH1 for the CRL-substrate complex (single-encounter ubiquitylation, ARIH1 titrated, 10 s, Michaelis-Menten fit); peptide on the CRL: KR Lys 387 cycE was 0.874 µM; the Km of ARIH1 for the CRL-substrate complex (single-encounter ubiquitylation, ARIH1 titrated, 10 s, Michaelis-Menten fit); peptide on the CRL: KR Ser 387 cycE turned out to be 1.04 µM; the Km of ARIH1 for the CRL-substrate complex (single-encounter ubiquitylation, ARIH1 titrated, 10 s, Michaelis-Menten fit); peptide on the CRL: Lys only cycE is 0.98 µM.
Consider “K342A/E343A ARIH1 (from UniProt Q9Y4X5 1-557) (enzyme)”, for which, in test [1], the Km of ARIH1 for the CRL-substrate complex (single-encounter ubiquitylation, ARIH1 titrated, 10 s, Michaelis-Menten fit); peptide on the CRL: KR Lys 387 cycE is 1.56 µM; the Km of ARIH1 for the CRL-substrate complex (single-encounter ubiquitylation, ARIH1 titrated, 10 s, Michaelis-Menten fit); peptide on the CRL: KR Ser 387 cycE stood at 0.461 µM; the Km of ARIH1 for the CRL-substrate complex (single-encounter ubiquitylation, ARIH1 titrated, 10 s, Michaelis-Menten fit); peptide on the CRL: Lys only cycE is 1.22 µM.
For the substance “A397D/K398I/A399V ARIH1 (from UniProt Q9Y4X5 1-557) (enzyme)”, in test [1], the Km of ARIH1 for the CRL-substrate complex (single-encounter ubiquitylation, ARIH1 titrated, 10 s, Michaelis-Menten fit); peptide on the CRL: KR Lys 387 cycE is 1.12 µM; the Km of ARIH1 for the CRL-substrate complex (single-encounter ubiquitylation, ARIH1 titrated, 10 s, Michaelis-Menten fit); peptide on the CRL: KR Ser 387 cycE was found to be 1.19 µM; the Km of ARIH1 for the CRL-substrate complex (single-encounter ubiquitylation, ARIH1 titrated, 10 s, Michaelis-Menten fit); peptide on the CRL: Lys only cycE was determined as 0.544 µM.
Consider “ARIH1 (from UniProt Q9Y4X5 1-557) (enzyme)”, for which, in test [2], the Km of ARIH1 for the CRL-substrate complex (single-encounter ubiquitylation, ARIH1 titrated, 10 s, Michaelis-Menten fit); peptide on the CRL: NSer Hif1α is 0.66 µM and the Km of ARIH1 for the CRL-substrate complex (single-encounter ubiquitylation, ARIH1 titrated, 10 s, Michaelis-Menten fit); peptide on the CRL: WT Hif1α was found to be 0.403 µM. Moreover, in test [3], the Km of ARIH1 for the CRL-substrate complex (single-encounter ubiquitylation without cold competitor peptide, ARIH1 titrated, 10 s, Michaelis-Menten fit); peptide on the CRL: Arg47 Arg48 SelK was found to be 0.391 µM and the Km of ARIH1 for the CRL-substrate complex (single-encounter ubiquitylation without cold competitor peptide, ARIH1 titrated, 10 s, Michaelis-Menten fit); peptide on the CRL: Lys47 Arg48 SelK came out at 0.268 µM.
